Experimental data published in patent publication US20240417439A1, “RECOMBINANT POLYPEPTIDE FOR DISRUPTING INTERACTION OF EAG2 AND KVß2 AND THERAPEUTIC APPLICATIONS THEREOF IN CANCER TREATMENT” (The Hospital for Sick Children, priority 2021, published 2024).
Each block holds one molecule with its values, some of them ahead of it. No end group written: not given here.

Legend:
[1] = peptide treatment of non-tumor-bearing mice; assay type: in vivo
Description: To further determine the impact of peptide treatment on mouse physiology, non-tumor-bearing mice were treated with K59-78^TAT or K90-114^TAT.

[2] = molecular target: T1, human voltage-gated potassium channel subfamily H member 5 (KCNH5, EAG2) (human, UniProt Q8NCM2 1-988); test: co-IP in HEK293T cells (FIG. 26)
T1 construct: Full length EAG2 expressed in HEK293T cells and tested by co-IP from lysates; This id also stands for endogenous human EAG2 in lysates of GBM cells and of human fetal neural progenitor cells; also called full length EAG2
T1 sequence: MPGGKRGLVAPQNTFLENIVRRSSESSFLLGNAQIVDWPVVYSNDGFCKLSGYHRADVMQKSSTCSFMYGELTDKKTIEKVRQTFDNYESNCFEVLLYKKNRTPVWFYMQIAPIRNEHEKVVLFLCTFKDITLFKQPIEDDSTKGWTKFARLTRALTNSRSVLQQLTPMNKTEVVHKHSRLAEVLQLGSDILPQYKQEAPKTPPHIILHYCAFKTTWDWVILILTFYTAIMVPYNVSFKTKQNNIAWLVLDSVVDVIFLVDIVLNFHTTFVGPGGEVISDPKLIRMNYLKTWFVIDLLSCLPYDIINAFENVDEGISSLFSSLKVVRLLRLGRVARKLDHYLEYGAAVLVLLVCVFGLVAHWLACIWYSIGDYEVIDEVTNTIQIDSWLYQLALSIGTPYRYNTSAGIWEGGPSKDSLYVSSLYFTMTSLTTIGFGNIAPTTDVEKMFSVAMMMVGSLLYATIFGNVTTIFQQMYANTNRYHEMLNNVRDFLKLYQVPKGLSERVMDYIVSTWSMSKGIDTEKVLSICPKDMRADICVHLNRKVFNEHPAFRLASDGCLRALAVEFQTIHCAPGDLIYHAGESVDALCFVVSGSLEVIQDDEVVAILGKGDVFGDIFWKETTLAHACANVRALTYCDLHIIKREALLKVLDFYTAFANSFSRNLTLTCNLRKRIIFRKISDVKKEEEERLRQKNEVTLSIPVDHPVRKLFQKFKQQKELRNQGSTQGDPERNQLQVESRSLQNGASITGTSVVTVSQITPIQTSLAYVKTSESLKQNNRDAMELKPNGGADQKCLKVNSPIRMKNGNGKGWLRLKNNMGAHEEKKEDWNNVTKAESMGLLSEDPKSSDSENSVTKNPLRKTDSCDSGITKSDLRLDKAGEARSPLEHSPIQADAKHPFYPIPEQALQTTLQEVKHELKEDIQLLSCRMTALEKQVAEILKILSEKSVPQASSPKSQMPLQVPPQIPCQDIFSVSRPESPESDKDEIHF
Description: Co-IPs of overexpressed proteins are performed using HEK293T cells.

[3] = molecular target: T1, human voltage-gated potassium channel …; test: co-IP of overexpressed proteins in HEK293T cells
[4] = molecular target: T1, human voltage-gated potassium channel …; test: co-IP in HEK293T cells

Molecule: GRKKRRQRRRPQGSGSGSYAAGKAEVVLGNIIKKKGWRRSSLV [K90-114^TAT]
pathological features of internal organs (heart, kidney, liver, lung) [1]: did not reveal pathological features
body weight ([1]; K59-78^TAT versus K90-114^TAT): comparable body weight
survival ([1]; K59-78^TAT versus K90-114^TAT): comparable

B1: Kvß2 truncation mutant f2 (79-316 aa) (other)
chain: NGINLFDTAEVYAAGKAEVVLGNIIKKKGWRRSSLVITTKIFWGGKAETERGLSRKHIIEGLKASLERLQLEYVDVVFANRPDPNTPMEETVRAMTHVINQGMAMYWGTSRWSSMEIMEAYSVARQFNLTPPICEQAEYHMFQREKVEVQLPELFHKIGVGAMTWSPLACGIVSGKYDSGIPPYSRASLKGYQWLKDKILSEEGRRQQAKLKELQAIAERLGCTLPQLAIAWCLRNEG
notes: Expressed in HEK293T cells
binding result [2]: binds

B3: Kvß2 truncation mutant f8 (1-342 aa) (other)
chain: MYPESTTGSPARLSLRQTGSPGMIYSTRYGSPKRQLQFYRNLGKSGLRVSCLGLGTWVTFGGQITDEMAEQLMTLAYDNGINLFDTAEVYAAGKAEVVLGNIIKKKGWRRSSLVITTKIFWGGKAETERGLSRKHIIEGLKASLERLQLEYVDVVFANRPDPNTPMEETVRAMTHVINQGMAMYWGTSRWSSMEIMEAYSVARQFNLTPPICEQAEYHMFQREKVEVQLPELFHKIGVGAMTWSPLACGIVSGKYDSGIPPYSRASLKGYQWLKDKILSEEGRRQQAKLKELQAIAERLGCTLPQLAIAWCLRNEGVSSVLLGASNADQLMENIGAIQVLPK
notes: Expressed in HEK293T cells
binding result [3]: binds

B5: Kvß2 truncation mutant f1 (1-158 aa) (other)
chain: MYPESTTGSPARLSLRQTGSPGMIYSTRYGSPKRQLQFYRNLGKSGLRVSCLGLGTWVTFGGQITDEMAEQLMTLAYDNGINLFDTAEVYAAGKAEVVLGNIIKKKGWRRSSLVITTKIFWGGKAETERGLSRKHIIEGLKASLERLQLEYVDVVFAN
notes: Expressed in HEK293T cells
binding result [3]: binds

B6: Kvß2 isoform 4 (other)
chain: MAEQLMTLAYDNGINLFDTAEVYAAGKAEVVLGNIIKKKGWRRSSLVITTKIFWGGKAETERGLSRKHIIEGLKASLERLQLEYVDVVFANRPDPNTPMEETVRAMTHVINQGMAMYWGTSRWSSMEIMEAYSVARQFNLTPPICEQAEYHMFQREKVEVQLPELFHKIGVGAMTWSPLACGIVSGKYDSGIPPYSRASLKGYQWLKDKILSEEGRRQQAKLKELQAIAERLGCTLPQLAIAWCLRNEGVSSVLLGASNADQLMENIGAIQVLPKLSSSIIHEIDSILGNKPYSKKDYRS
notes: Expressed in HEK293T cells; also called Kvβ2 isoform 4; Kvß2 splice isoform 4
binding result [4]: binds

B7: Kvß2 truncation mutant f4 (79-158 aa) (other)
chain: NGINLFDTAEVYAAGKAEVVLGNIIKKKGWRRSSLVITTKIFWGGKAETERGLSRKHIIEGLKASLERLQLEYVDVVFAN
notes: Expressed in HEK293T cells
binding result [2]: binds

Now from value to molecule:

binding result [3]: no binding
B2: Kvß2 truncation mutant f9 (1-355 aa) (other)
chain: MYPESTTGSPARLSLRQTGSPGMIYSTRYGSPKRQLQFYRNLGKSGLRVSCLGLGTWVTFGGQITDEMAEQLMTLAYDNGINLFDTAEVYAAGKAEVVLGNIIKKKGWRRSSLVITTKIFWGGKAETERGLSRKHIIEGLKASLERLQLEYVDVVFANRPDPNTPMEETVRAMTHVINQGMAMYWGTSRWSSMEIMEAYSVARQFNLTPPICEQAEYHMFQREKVEVQLPELFHKIGVGAMTWSPLACGIVSGKYDSGIPPYSRASLKGYQWLKDKILSEEGRRQQAKLKELQAIAERLGCTLPQLAIAWCLRNEGVSSVLLGASNADQLMENIGAIQVLPKLSSSIIHEIDSIL
notes: Expressed in HEK293T cells

binding result [3]: no binding
B4: Kvß2 truncation mutant f3 (239-367 aa) (other)
chain: GAMTWSPLACGIVSGKYDSGIPPYSRASLKGYQWLKDKILSEEGRRQQAKLKELQAIAERLGCTLPQLAIAWCLRNEGVSSVLLGASNADQLMENIGAIQVLPKLSSSIIHEIDSILGNKPYSKKDYRS
notes: Expressed in HEK293T cells

binding result [4]: no binding
B8: Kvβ2 isoform 2 (other, human, UniProt Q13303-2 1-353, looked up)
chain: MYPESTTGSPARLSLRQTGSPGMIYRNLGKSGLRVSCLGLGTWVTFGGQITDEMAEQLMTLAYDNGINLFDTAEVYAAGKAEVVLGNIIKKKGWRRSSLVITTKIFWGGKAETERGLSRKHIIEGLKASLERLQLEYVDVVFANRPDPNTPMEETVRAMTHVINQGMAMYWGTSRWSSMEIMEAYSVARQFNLTPPICEQAEYHMFQREKVEVQLPELFHKIGVGAMTWSPLACGIVSGKYDSGIPPYSRASLKGYQWLKDKILSEEGRRQQAKLKELQAIAERLGCTLPQLAIAWCLRNEGVSSVLLGASNADQLMENIGAIQVLPKLSSSIIHEIDSILGNKPYSKKDYRS
notes: Only the isoform number is printed; Whether it matches the UniProt isoform numbering is not confirmed

binding result [4]: no binding
B9: Kvβ2 isoform 5 (other, human, UniProt Q13303-5 1-395, looked up)
chain: MYPESTTGSPARLSLRQTGSPGMIYSTRYGSPKRQLQFYRNLGKSGLRVSCLGLGTWVTFGGQITDEMAEQLMTLAYDNGINLFDTAEVYAAGKAEVVLGNIIKKKGWRRSSLVITTKIFWGGKAETERGLSRKHIIEGLKASLERLQLEYVDVVFANRPDPNTPMEETVRAMTHVINQGMAMYWGTSRWSSMEIMEAYSVARQFNLTPPICEQAEYHMFQREKVEVQLPELFHKIGVGAMTWSPLACGIVSGKYDSGIPPYSRASLKGYQWLKDKILSEEGRRQQAKLKELQAIAERLGCTLPQLAIAWCLRNEGVSSVLLGASNADQLMENIGAIQVRVRGPAGQRAHPSPSPVQCILPGSSCVPGSVLGTQDAPVNHQSCAPGELAFQQEQT
notes: as for B8

binding result [3]: no binding
B10: Kvß2 truncation mutant f6 (317-367 aa) (other)
chain: VSSVLLGASNADQLMENIGAIQVLPKLSSSIIHEIDSILGNKPYSKKDYRS
notes: Expressed in HEK293T cells

binding result [3]: no binding
B11: Kvß2 truncation mutant f5 (239-316 aa) (other)
chain: GAMTWSPLACGIVSGKYDSGIPPYSRASLKGYQWLKDKILSEEGRRQQAKLKELQAIAERLGCTLPQLAIAWCLRNEG
notes: Expressed in HEK293T cells

binding result [3]: binds
B12: Kvß2 truncation mutant f7 (1-316 aa) (other)
chain: MYPESTTGSPARLSLRQTGSPGMIYSTRYGSPKRQLQFYRNLGKSGLRVSCLGLGTWVTFGGQITDEMAEQLMTLAYDNGINLFDTAEVYAAGKAEVVLGNIIKKKGWRRSSLVITTKIFWGGKAETERGLSRKHIIEGLKASLERLQLEYVDVVFANRPDPNTPMEETVRAMTHVINQGMAMYWGTSRWSSMEIMEAYSVARQFNLTPPICEQAEYHMFQREKVEVQLPELFHKIGVGAMTWSPLACGIVSGKYDSGIPPYSRASLKGYQWLKDKILSEEGRRQQAKLKELQAIAERLGCTLPQLAIAWCLRNEG
notes: Expressed in HEK293T cells

binding result [4]: no binding
B13: Kvβ2 isoform 3 (other, human, UniProt Q13303-3 1-415, looked up)
chain: MLSMTYSESLRSVSSRCHSEWALHPVRQTDTLELQRLREVRAAAQARNMESFLRMHGLSLDGCTAQRTGMKYRNLGKSGLRVSCLGLGTWVTFGGQITDEMAEQLMTLAYDNGINLFDTAEVYAAGKAEVVLGNIIKKKGWRRSSLVITTKIFWGGKAETERGLSRKHIIEGLKASLERLQLEYVDVVFANRPDPNTPMEGDPFSSSKSRTFIIEETVRAMTHVINQGMAMYWGTSRWSSMEIMEAYSVARQFNLTPPICEQAEYHMFQREKVEVQLPELFHKIGVGAMTWSPLACGIVSGKYDSGIPPYSRASLKGYQWLKDKILSEEGRRQQAKLKELQAIAERLGCTLPQLAIAWCLRNEGVSSVLLGASNADQLMENIGAIQVLPKLSSSIIHEIDSILGNKPYSKKDYRS
notes: as for B8
